Among the data in a protein production outcome set (Wang et al. 2014) are protein production values, retold here.
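Also: failed if final PepcDB status was selected cloned or expressed and not failed if soluble or beyond.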

A short description of the data set: label from the status in PepcDB records.
Take “MKLGIGKIKDVLKSGAGKSTESGREEQKIEEIEPDRVEEATMTAKISEQESENTPDKEHLVPMNRTECKKTGLIFFPAFDWAISPTHPEREERLLYTRDQIFEEGLMDLPQIAEYKPRLAEFKDIARVHFCIPDIEAQATTPHLIAAGSCLVLADALMRGEVKNAFALVRPPGHHAMTVAHGNRGFCNINNEAILVEYLRKKYGIRRIAIVDTDVHHGDGTQEIFYNDPDILFISFHQDGRTLYPGSGFTNELGGPKALGRTINIPLPPGTPDEGILYVLDSLVMPILEDFKPELVLNSAGQDNHYTDPLANMRFSAQGYAKLNEKLGPDMAVLEGGYAIQSALPYVNTGIILAMAGLDYSCVMEPDFKPGMFVQAARDRQILEGVVATQLENWKNRNRLVEEEIAKHGDFYRRKKQIFYDTDMIQEVQEETIKMCPDCQGYVTIDSRAHRSINDTRIFGVSVPIYACNRCQAEAEEEYKKRLKSPEYEYVYLQDKKADEYRAYNMRTKQEIVY”: the protein production result is listed as “failed”. “MKLGKTLAISCISMLSLSIWTQQVSAASAFDPSSEWMLGDWNGERTALKQKGYDFSIGYTGEMATVLDSKDTSRHGTEYAGQVALGTHFDLNKILGWQDTEAQITLTHRDGHDIKNKAAALEGQLSSTQEVYGRGQTTRLTDLWIKKKFFDQALDIKVGRFGESEDFNPAACDFQNLALCGDQMGNWNAGDQIHNWPVSQWAARVKYNVTPEVFAQVGVYEYNPENLKRSKGFNLSTDGSKGAVIPVEVVWQPKSGLINGLAGEYRAGYYYSTADANEINSTNKDHGQGGWLSFIQQLTAVNGDTSRGLKVVGQATFFDEATSRVKNTQSLAFAYKGLVDTRPKDELAIGFSRINLNDDAYLGKDVDSEYNSEIYYGIEATNWLTVRPNVQYVRHVGALKDGNNAWVGGIKFQTVF”: the protein production result is reported as “failed”. For the sequence “MKLIASNKKAYFDYEILETLEAGLALLGSEVKALRQTRVNLKDNFVKIIKGEAFLFGVHISYLDTIHAYYKPNERRERKLLLHKKQLLKWQIEASKERLSIVGLKLYFNQRNRAKIQIALVKGKRLHDKRQSLKEKALNKEILADLKHHFKG”, the protein production entry is “failed”.

With “MKLIRVTLFLCALAILLLVTPTSSLQLKHPYSSPSQGLSKKIVTKMATRKLMIISSEYVMTSTSHEGSSEQLRVTSSGKSKDEEKKLSEEEEEKKALAKYLSMDYRTFRRRRPVHNKALPLDP”, the protein production result is listed as “failed”. Consider “MKLITKEVRIGIAGVAALCLLVFGINYLKGINMFKPASYFYVKFHNVNGLAQSSPVFADGVRVGIVRDIAYDYNQPENVIVEVEVDTDLRIPKGSSAELVPELMGGVRMNILLANNPRERYTVGDTIPGTLNNGMMEKVAAMMPAVEKMLPKLDSILTSLNTIMADQSIPATLHSIEKTTANLEVTSRQLKVLMNNDIPQLTGKLNTIGDNFVVISGNLKEIDYAATFKKIDTTLSNVKMLTEKLNSKDNTVGLLLNDPQLYNNLNQTTINAANLLEDLKEHPKRYVHFSLFGKKDKLEHHHHHH”, for which the protein production result is reported as “failed”.

Regarding “MKLIWSPETASKAYIDTVKSCENLGTPGAAELVAAMAAGWNANLIVETWSEGETIAISVGLNIASRHTNGRHICIVPNARSQTAYLQAMAEQSCSNLPETIIMNEEGEELEHTMQTLQGIDFLVVDWDQKDFAANVLRNAVFGSRGAVVVCRSGYRRSTSCFSWTKAFSDRNVVRTVTLPVSGGLEIAHVAAARSSGKSDNNSNKRKWIKHFDQRSGEEHVIRK”, the protein production result is listed as “failed”. To “MKLKDDPDIIRWINSRPRQALFASVAMVISTMSIGLFKGFDMWTADFFIFSCLLIGFGLLVGWLQKIYYKKVIFEENSDR” belongs “failed”; to “MKLKKRKVAAALLKRFTLPLLFTTGSLGAVTYEVHGDFINFAKVGFNHSPINPVKGIYPTETFVNLTGKLEGSVHLGRGWTVNLGGVLGGQAYDGTKYDRWAKDFTPPSYWDKTSCGTDSMSLCMNATKMWQQSGPGGVINPRGIGWEYMGEWNGLFPNYYPANAYLPGGSRRYQVYKANLTYDSDRVHMVMGRFDITEQEQMDWIYQLFQGFYGTFKLTKNMKFLLFSGWGRGIADGQWLFPIYREKPWGVHKAGIIYRPTKNLMIHPYVYLIPMVGTLPGAKIEYDTNPEFSGRGIRNRTTFYALYDYRWNNAEYGRYAPARYNTWDPFLDNGKWRGLQGPGGATLLLRHHIDINNYFVVGGAYLNIGNPNMNLGTWGNPVAVDGIEQWVGSIYSLGFAGIDNITDADAFTEYVKGGGKHGKFSWSVYQRFTTAPRALEYGIGMYLDYQFSKHVKAGLKLVWLEFQIRAGYNPGTGFLGPNGQPLNLNTGLFESSAFAQGPQNMGGIAKSITQDRSHLMTHISYSF”, “failed”. Take “MKLKTKTMEWSGNSLKLLDQRKLPFIEEYVECKTHEEVAHAIKEMIVRGAPAIGVAAAFGYVLGLRDYKTGSLTDWMKQVKETLARTRPTAVNLFWALNRMEKVFFENADRENLFEILENEALKMAYEDIEVNKAIGKNGAQLIKDGSTILTHCNAGALATVDYGTALGVIRAAVESGKRIRVFADETRPYLQGARLTAWELMKDGIEVYVITDNMAGWLMKRGLIDAVVVGADRIALNGDTANKIGTYSLAVLAKRNNIPFYVAAPVSTIDPTIRSGEEIPIEERRPEEVTHCGGNRIAPEGVKVLNPAFDVTENTLITAIITEKGVIRPPFEENIKKILEV”: the protein production result is on record as “not failed”. “MKLKTRICKKNSIRNSEKVEESSKSTTNCPLSCVDWSSNEEIYFVSDDHQIFKWSDVSRDSVEVAKLPDDFVPTDMHWLLLGGRSSGGGKGSDTLLICSNDGRFVILNKSARVERSISAHAAAISSGRWSPDGAGLLTAGEDGVIKIWSRSGMLRSTVVQNEESIRCARWAPNSNSIVFCQGGHISIKPLAANSKIIRWRAHDGLVLSLSWSTQSNIIASGGEDFRFKIWDAQGANLFTSAAEEYAITSVAFNPEKDYLLWSYNTARFSSPRVGSIFNLSWSADGTQATCGTSTGQLIVAYAIEQQLVSGNLKATSKSRKSITLKDIATGTQDILDFPQRVVSFGLGYGHLVVATTNQVHIYNEKYINTPIIIDGRNDTRVIEVGKKYFMILDALSIWVYTYTGRLHLNPRYPGSQAQIPLLTWRSLSLGLDVLAIRDNSDPTVLHLFDLIPGASRQYDPHSLRAKQQLVQIAACRAGSPEDQFVAFIDSNRELFVSESRNLNSERIDEIYKIGTQLTAIMWASETNILVGVHDSCYSIWYCPGEGASDPTIIALTTITLDTTEFGKHITIESFEESVLTFRSAGALLPVNVNMYCEILHRALLEGQWQQALKICRMGQHSSLWATLAAVATRKHQLQISEEAYSAALQIDKVSYLQHLKALTPSSAEQMAENSLMLGRMLEAETILLHGKKIEQAVGLALRMHNWRRALEISQKHKGEQPELVPRVLQERRKYLKALQREEWDPLYLPLVAKEEADNTSE”: the protein production result was “failed”. The result for “MKLLNVLLLTTSLSVFYTYAETDYQWLRDDSRSEPAVKQFLAEHNRKTDHWFAPAKPLVQELVNEWQQTSQHKAPPPALIYANQQYNDIQWNGHRHIVKIGAQGQIEPLLNLSARAEPFDYYQLASWSLDRSVQSVALAEDTRGDEQFKLTIVRLADRTEQIVSETASTYFAWAADGKSLYYLSDLNGSTQLQRFELETGQSTRLAEWRSAEWLFSLYSASNPRYLVVQQNNENSTQQRLLDTQTGELMPWLRTTEPGLEYYADVLGETLYINSNHQGAFRLYRQPLHTKQDWQSVTTHKEIGSLSNFYLFDAGIVLVENQTLAPKVWVLDSQGEVRTHFELRDLGQVAWISRNGDAVSNRLRVRTMSMTEPASWHELDVAQLQWQQLSQDHYADFDPKQYQTQTVWVTQGAIQVPVTLAYRSDKLTPNSSVVLYGYGAYGVTMKPYFMPQIVSLLDRGMIYAIAHVRGGGYLGEAWHQAGAGLNKQNGIDDFLAAARYLTHFQQGERAIYTIGGSAGGTLVAAALNQQPNLFAGAVLQVPFVDVLASMSDTSQALTAQQYQEWGNPQQPEQRQVMQAYDPLSNLRAAPYPPTLVNVGWWDNRVPYWEGARYLARLSDVSQGAGPYLLSTDFQAGHASDRRQALEKQAREYAFFLTLDKTRKAGQ” reads “failed”; that for “MKLQGSNILGQEQIDLLTTRGLNFVWFPKQLETIYRFQYQNGAAYEFRYRAPIILILYLFLSFGIYQVLPTEQVLSWLSYYSWVGIIVLIAWILSFIKKLNQWFDYYVGIGSSAAVAITFILINVLENGQDNVLFHAAMMYAIVIIYGAVGMRFYTAIIAGWVGGLIGILVSTYLNGDIDWTFLNRTYTFSSFLGMTLAYATDRQHRENYLQNCMIELNRIELMQQAQQLSLLSQQDALTGLANRRYLDETLDNEWRRALRHETPLTIMMVDIDFFKPYNDSLGHLKGDQCLKDIATAISSIAARSGDLVARYGGEEFLLLFPMTNAQQAKIQAERLMNAIKKIAIVHPCSSVSPYVTISVGVATTIPRLNDSISAFVSRADHALYQAKTNGRNQYQIALNEEQIVDLT”, “failed”. The result for “MKLRHCLIIVFACCAALWSESPSIADDAVRTSLAGLEWHVVTDVWPPFRIEQETGLVGIDVDILKALSTSLGLRLRISRAPWGRCLKMLETGAADAMIGLAKSAEREVYIRYVPTSYYTCSPRFYILAGARRAVLTYDDLEGMRVGYVAQSRYFEPFDSDTKLQKYAVPTERQLLELLLAGRVDVMVGTDCQVDYELAEAGLLERVVVAPYRPDAHTRLYLGFSRKSRFVPRIALFDDAMRDLLEKGALKQIRASYLPDSSVSGR” reads “failed”. For “MKLSQQSLSIIESAIQKAVGKYVCNCEQTVVTDIHLQPDQTSGQLNIYNDDDEELANVMVEEWATYDGDDFLENIEPGLRSILCRMKDAGDFDKVTILKPYSFVLVDEDKETVTELLLVDDDTMLVNDELLKGLDKELDDFLKELLEK”, the protein production entry was “failed”.

With “MKLTKGKVLLAGCMAMAMSHSVLAQDIKVAIVGAMSGPVAQYGDMQFTGARQAIADINASGGIKGDKLVGVEYDDACDPKQAVAVANKVINDGIRYVIGHLCSSSTQPASDIYEDEGVIMITPAATNADLTTRGYKMIMRTTGLDSDQGPTAAKYIVETIKPKRIAVVHDKQQYGEGLARSVRDSLKEQGAEVVLFEGVTAGDKDFSTLVARLKKENVDFVYFGGYYPEMGQILRQAKQAGLTARFMGPEGVGNSSLSNIAGEASEGMLVTLPKRYDQVPANQPIVDALKAKKLDPTGPFVWTTYAALQSLTTAMERTGSKEPADLANDLKTGKPVETVMGPLSWDDKGDLKGFEFGIFEWHADGSSTAVK”, the protein production result is “failed”.

Regarding “MKLYLILLPVLYLIVSYISIFKMHSVITRILRIVMGILLLFVVALTTLQFPKENWWVFVVLLLLVGNVEVTGFKELKDDKKGVSILNILSLLLFVIFIILIFILY”, the protein production entry was “failed”. To “MKMKLPLPKPSTKIAKKPQQLALLNQRLNQLSQQFKQALAQEDYQRAYECVHEVIHLVPDHRVAYMDLAYTALRLKRFDAAYQHYQKALELSEKNIDPNIYDGLTEVAYFLNQQEQVRHYGHLSLKTKQKQVASETMTALPHSAPPPISIESPEQNIIAFSLFGDQPRYCETAILNVIEARKIYPEWRCRFYVDESVPSSVLSRLQQHGAQLVLVSPEQQQISGLFWRFFVMDDPEVKRFLIRDADSLISMREREAVDEWLQSDRWFHVMRDYYSHTELILAGMWGGCTGIFHQIETSIRQYIASGRYLNERVIDQHFLRYCIWPTLQQSVITHDRYLFADNASRFPQDRDRQPDWRIQYQHVGMNESAATVSVTVNHPDAVRVKWVLLNQMKQIVCQYSAQVLSNRSIEIHLPENYVEKIRLKAWNLQIYPYEN” belongs “failed”; to “MKMLNRLDLGVPCLRAGFAGEQAFFLAMDGRLHVQQGDQRRVVALHDGDVLSACAAPGQADAAAWLLSAGEDGRVMRAGAGEPDCVASVPNKWVTALAVAADGALAYASGRTVWLAGGGGEAAALPQERPVQALRFSHGGRWLAVAGYDGLALYDRQAGGEPQRLDWKGMPTRVAFSPDDRFVLVATRDAVLHGWRLDTLRHFRMVGYPRAVGSWSWLAGGQWLATDGSAGAVLWPFEGEEGPIGSTPLALGERPDGEVSAVACHPARPWVAVGYADGLMVLESTDGALRRILGQAGRDRVACLAWDRAGARLAYGTPSGACGVIQADTGEEG”, “failed”.
